Measurements taken from patent WO2023190852A1.

Target: RBD derived from the Omicron strain (BA.1 strain; B.1.1.529) (SARS-CoV-2)

Substance: REGN10933 (antibody)
- binding inhibition rate (%): < 80%

Substance: LY_CoV555 (antibody)
- binding inhibition rate (%): < 80%

Substance: AZD1061 (antibody)
- binding inhibition rate (%): < 80%

Substance: S309 (antibody)
- binding inhibition rate (%): < 80%

Substance: AZD8895 (antibody)
- binding inhibition rate (%): < 80%

Substance: ADG2 (antibody)
- binding inhibition rate (%): < 80%

Substance: LY_CoV16 (antibody)
- binding inhibition rate (%): < 80%

Substance: REGN10987 (antibody)
- binding inhibition rate (%): < 80%
